Experimental findings from patent US20030144339A1, “Indole derivatives as mcp-1 receptor antagonists” (priority 2000, published 2003) are described below.

In experiment [1] the target is T1, MCP-1 receptor B (CCR2B) (Homo sapiens, UniProt P41597).
T1 construct: expressed in transfected cells; membrane fragments
T1 sequence (P41597 1-360 isoform P41597-2): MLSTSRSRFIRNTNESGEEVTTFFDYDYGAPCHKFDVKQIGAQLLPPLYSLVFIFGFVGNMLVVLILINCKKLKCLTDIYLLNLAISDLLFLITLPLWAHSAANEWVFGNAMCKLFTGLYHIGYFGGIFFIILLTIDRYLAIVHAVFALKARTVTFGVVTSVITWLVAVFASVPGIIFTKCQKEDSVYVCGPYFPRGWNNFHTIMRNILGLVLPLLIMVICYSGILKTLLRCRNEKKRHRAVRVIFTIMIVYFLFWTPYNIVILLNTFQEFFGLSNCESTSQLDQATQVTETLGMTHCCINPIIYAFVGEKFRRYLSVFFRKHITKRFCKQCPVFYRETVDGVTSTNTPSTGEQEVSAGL
Kind of experiment: hMCP-1 receptor binding assay (125I-MCP-1, CHO-CCR2B cell membranes). From the text:
The MCP-1 receptor B (CCR2B) cDNA was cloned by PCR from ThP-1 cell RNA using suitable oligonucleotide primers based on the published MCP-1 receptor sequences (Charo et al., 1994, Proc. Natl. Acad. Sci. USA, 91, 2752). The resulting PCR products were cloned into vector PCR-II™ (In Vitrogen, San Diego, Calif.). Error free CCR2B cDNA was subcloned as a Hind III-Not I fragment into the eukaryotic expression vector pCDNA3 (In Vitrogen) to generate pCDNA3/CC-CKR2A and pCDNA3/CCR2B respectively.
Linearised pCDNA3/CCR2B DNA was transfected into CHO-K1 cells by calcium phosphate precipitation (Wigler et al., 1979, Cell, 16, 777). Transfected cells were selected by the addition of Geneticin Sulphate (G418, Gibeo BRL) at 1 mg/ml, 24 hours after the cells had been transfected. Preparation of RNA and Northern blotting were carried out as described previously (Needham et al., 1995, Prot. Express. Purific., 6, 134). CHO-K1 clone 7 (CHO-CCR2B) was identified as the highest MCP-1 receptor B expresser.
CHO-CCR2B cells were grown in DMEM supplemented with 10% foetal calf serum, 2 mM glutamine, 1× Non-Essential Amino Acids, 1× Hypoxantiine and Thymidine Supplement and Penicillin-Streptomycin (at 50 μg streptomycin/ml, Gibco BRL). Membrane fragments were prepared using cell lysis/differential centrifuigation methods as described previously (Siciliano et al., 1990, J. Biol. Chem., 265, 19658). […]

The subject of experiment [2] is THP-1 cells. Kind of experiment: MCP-1 mediated calcium flux in THP-1 cells. Type of experiment: cell-based, human. The note with it: FURA-2, stimulation with hMCP-1, read-out: EC50 of rise in [Ca2+]i. As for the experimental part:
The human monocytic cell line TIP-1 was grown in a synthetic cell culture medium RPM 1640 supplemented with 10% foetal calf serum, 6 mM glutamine and Penicillin-Streptomycin (at 50 μg streptomycin/ml, Gibeo BRL). THP-1 cells were washed in HBSS (lacking Ca^2+ and Mg^2+)+1 mg/ml BSA and resuspended in the same buffer at a density of 3×10^6 cells/ml. The cells were then loaded with […] FURA-2/AM for 30 mrin at 37° C., washed twice in HBSS, and resuspended at 1×10^6 cells/ml. TrP-1 cell suspension (0.9 ml) was added to a 5 ml disposable cuvette containing a magnetic stirrer bar and 2.1 ml of prewarmed (37° C.) HBSS containing 1 mg/ml BSA, 1 mM MgCl2 and 2 mM CaCl2. The cuvette was placed in a fluorescence spectrophotometer (Perkin Elner, Norwalk, Conn.) and preincubated for 4 min at 37° C. with stirring. Fluorescence was recorded over 70 sec and cells were stimulated by addition of hMCP-1 to the cuvette after 10 sec. [Ca^2+]i was measured by excitation at 340 nm and 380 nm alternately and subsequent measurement of the intensity of the fluorescence emission at 510 nm.
where the Kd for FURA-2 Ca^2+ complex at 37° C. was taken to be 224 nm. […]
For orientation: A change in cytosolic calcium serves as a functional read-out for many receptors and channels.

For experiment [3], the system named is THP-1 cells. Kind of experiment: hMCP-1 mediated chemotaxis of THP-1 cells. It counts as cell-based, human. The conditions noted are these: 2 h at 37° C. As for the experimental part:
In vitro chemotaxis assays were performed using the human monocytic cell line THP-1. Cell migration through polycarbonate membranes was measured by enumerating those passing through either directly by Coulter counting or indirectly by use of a colourimetric viability assay measuring the cleavage of a tetrazolium salt by the mitochondrial respiratory chain (Scudiero D. A. et al. 1988, Cancer Res., 48, 4827-4833).
Chemoattractants were introduced into a 96-well microtitre plate which forms the lower well of a chemotaxis chamber fitted with a PVP-free 5 μm poresize polycarbonate adhesive framed filter membrane (NeuroProbe MB series, Cabin John, Md. 20818, USA) according to the manufacturer's instructions. […] The plate was incubated at 37° C. for 3 h and the absorbance of the soluble formazan product was read on a microtitre plate reader at 450 nm. The data was input into a spreadsheet, corrected for any random migration in the absence of chemoattractant and the average absorbance values, standard error of the mean, and significance tests were calculated. bMCP-1 induced concentration dependent cell migration with a characteristic biphasic response, maximal 0.5-1.0 nm.

In the case of “MCP-1: Human Monocyte Chemoattractant Protein-1, a C-C chemokine; natural ligand of the CCR2 receptor, used as assay ligand/stimulus”, in experiment [1] (cold competition with 100 pM 125I-labeled MCP-1, room temperature, read-out: IC50 of MCP-1 binding to CHO-CCR2B membrane fragments), the IC50 was 0.11 nM. Further, the Kd in experiment [1] (equilibrium binding, room temperature, read-out: Kd of MCP-1 binding to CHO-CCR2B membrane fragments) was found to be 0.12 nM. Also, in experiment [2], the EC50 is around 2 nM. Moreover, the “concentration giving maximal cell migration (biphasic response)” value in experiment [3] was 0.5-1.0 nm.

One may read the IC50 as the midpoint of a concentration-inhibition curve. The Kd is the free concentration of one partner at which half of the binding sites on the other are occupied at equilibrium, for simple one-to-one binding. A word on the EC50: it is the midpoint of the concentration-response curve.
